The target of assay [1] is human CLDN18.1 (human) (UniProt P56856). The experiment in a line: flow cytometry on CLDN18.1-HEK293 cells, 100 µg/mL antibody, replicate 3.
For assay [2] the target is unchanged. Put plainly: flow cytometry on CLDN18.1-HEK293 cells, 100 µg/mL antibody, replicate 1. In general terms: Flow cytometry measures light scatter and fluorescence of single cells or particles in a stream.
Assay [3] shares this target. The experiment in a line: flow cytometry on CLDN18.1-HEK293 cells, 100 µg/mL antibody, replicate 2.

Chain of human CLDN18.1 (human) (P56856 whole entry): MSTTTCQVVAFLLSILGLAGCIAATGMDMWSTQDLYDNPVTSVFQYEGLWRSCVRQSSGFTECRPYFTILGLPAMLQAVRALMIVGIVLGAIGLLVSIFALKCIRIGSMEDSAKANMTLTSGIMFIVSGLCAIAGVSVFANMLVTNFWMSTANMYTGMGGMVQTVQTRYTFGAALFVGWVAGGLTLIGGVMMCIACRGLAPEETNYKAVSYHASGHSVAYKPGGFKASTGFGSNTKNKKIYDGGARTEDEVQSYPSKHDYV

For hIgG1 isotype antibody, the positive rate of cell binding with human CLDN18.1 (human) [1] is 0.115%; with human CLDN18.1 (human) [2] it was 0.063%; in the assay with human CLDN18.1 (human) [3] it was 0.233%.

These data come from patent publication US20220396616A1.
